Experimental data as given in patent publication US20250049939A1, “NOVEL FLT3 ANTIBODIES AND ANTIBODY-DRUG-CONJUGATES BASED THEREON, THERAPEUTIC METHODS AND USES THEREOF IN COMBINATION WITH TYROSINE KINASE INHIBITORS” (TUBULIS GmbH, priority 2021, published 2025).

T1: recombinant human FLT3 (Homo sapiens, UniProt P36888)
T1 construct: purchased Sino Biological 10445-H08H
T1 sequence (P36888 27-541 limits assumed): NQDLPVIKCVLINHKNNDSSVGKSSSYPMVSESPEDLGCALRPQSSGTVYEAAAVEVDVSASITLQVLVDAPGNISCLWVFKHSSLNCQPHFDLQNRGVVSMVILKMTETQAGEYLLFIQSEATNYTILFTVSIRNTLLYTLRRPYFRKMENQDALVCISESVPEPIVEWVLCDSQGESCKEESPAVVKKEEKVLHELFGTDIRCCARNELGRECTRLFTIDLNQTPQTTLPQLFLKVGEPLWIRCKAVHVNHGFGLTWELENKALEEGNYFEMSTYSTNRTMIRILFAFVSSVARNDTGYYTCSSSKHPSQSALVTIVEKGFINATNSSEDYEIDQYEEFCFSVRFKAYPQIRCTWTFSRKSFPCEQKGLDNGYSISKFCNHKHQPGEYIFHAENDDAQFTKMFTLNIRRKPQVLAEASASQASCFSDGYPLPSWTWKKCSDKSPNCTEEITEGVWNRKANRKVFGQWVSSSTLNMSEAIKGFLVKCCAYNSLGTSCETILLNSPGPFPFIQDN

T2: Ba/F3 cells expressing human wildtype FLT3 (Homo sapiens, UniProt P36888)
T2 construct: expressed in transfected cells; host or cells: Ba/F3 cells, retrovirally transduced with MSCV-IRES-YFP (pMIY) vector
T2 sequence (P36888 27-993): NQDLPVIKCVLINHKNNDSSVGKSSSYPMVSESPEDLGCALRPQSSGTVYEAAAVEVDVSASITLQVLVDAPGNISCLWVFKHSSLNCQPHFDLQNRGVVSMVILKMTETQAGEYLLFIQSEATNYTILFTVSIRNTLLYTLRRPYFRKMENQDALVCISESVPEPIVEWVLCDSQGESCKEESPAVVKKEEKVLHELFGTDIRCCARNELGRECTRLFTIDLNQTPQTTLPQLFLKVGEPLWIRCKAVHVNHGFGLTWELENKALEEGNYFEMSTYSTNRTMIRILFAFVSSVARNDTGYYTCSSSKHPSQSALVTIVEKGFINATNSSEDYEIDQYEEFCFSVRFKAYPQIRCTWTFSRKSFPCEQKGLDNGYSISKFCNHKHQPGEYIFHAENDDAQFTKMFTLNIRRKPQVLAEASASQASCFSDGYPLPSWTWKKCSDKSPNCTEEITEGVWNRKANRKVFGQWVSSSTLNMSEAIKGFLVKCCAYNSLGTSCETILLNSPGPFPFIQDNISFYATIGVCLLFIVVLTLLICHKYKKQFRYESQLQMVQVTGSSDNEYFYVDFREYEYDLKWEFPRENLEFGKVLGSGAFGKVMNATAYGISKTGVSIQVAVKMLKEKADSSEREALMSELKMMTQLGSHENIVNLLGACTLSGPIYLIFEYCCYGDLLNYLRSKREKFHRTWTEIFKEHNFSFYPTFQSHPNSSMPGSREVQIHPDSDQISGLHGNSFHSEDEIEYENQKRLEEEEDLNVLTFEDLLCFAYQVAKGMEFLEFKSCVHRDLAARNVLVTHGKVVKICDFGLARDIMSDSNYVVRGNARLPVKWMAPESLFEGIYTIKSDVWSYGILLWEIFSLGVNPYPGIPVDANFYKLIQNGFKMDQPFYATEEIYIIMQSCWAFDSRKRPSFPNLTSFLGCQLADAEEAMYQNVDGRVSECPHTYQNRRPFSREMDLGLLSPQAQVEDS

B1: 4B12: chimeric anti-FLT3 antibody from rat; VH SEQ ID NO: 9, VL SEQ ID NO: 10 (antibody, V domains shown)
VH: QVQLQQSGPGLVQPSQTLSLTCTVSGFSLTSYNVNWVRQPPGKGLEWIGAMWRGGGTDYNPALKSRLSISRDTSKSQVFLKMNRLQTEDTAIYFCTRGFGDYWGQGVMVTVSSA
VL: DIQMTQTPLSLSVAIGQSASISCKSSQSLKYSDGKTYLNWVFQSPGQSPKRLIYQVSKLDSGVPDRFSGTGSETDFTLKISRVEAEDLGVYYCCQGSYSPSTFGAGTKLELKR
modifications: Clone 4B12, heavy chain variable region without a signal sequence; Clone 4B12, light chain variable region without a signal seqeunce
B2: 20D9: chimeric (rat variable regions, human IgG1) anti-FLT3 monoclonal antibody; VH SEQ ID NO: 5, VL SEQ ID NO: 6 (antibody, V domains shown)
VH: DVMLVESGGGLVQPGRSLKLSCVASGFTFNNYWMTWIRQAPGKGLEWIASITKTGGGTYYPDSVKGRFTISRDNAKSTLYLQMNSLRSEDTATYYCTTLQQLGVMDAWGQGASVTVSSA
VL: DVQMTQSPSVLSASVGDRITLNCKASQNINKELNWYQQKLGEAPKLLIYNTNNLQTGIPSRFSGSGSGTDYTLTISSLQPEDVATYFCFQHKSWPLTFGSGTKLEIKR
modifications: Clone 20D9, heavy chain variable region without a signal seqeunce; Clone 20D9, light chain variable region without a signal seqeunce

Experiments:
recombinant human FLT3 = target: T1, recombinant human FLT3; assay: ELISA affinity to recombinant human FLT3; assay type: binding; conditions: chimeric Ab clones
Description: FIG. 1: Evaluation of epitope specificity and internalization capability of anti-FLT3 monoclonal antibodies. (A) Affinity of seven anti-FLT3 monoclonal antibody (mab) clones to recombinant human FLT3 measured in enzyme-linked immunosorbent assay (ELISA) normalized to the binding of the antibodies to BSA control. […] (B) Schematic FLT3 receptor. Black arrows indicate common mutations and blue arrows indicate the three identified epitopes of seven anti-FLT3 antibodies analyzed in linear epitope mapping by PEPperPRINT. Figure was created with BioRender.com. (C) Binding and temperature induced internalization of anti-FLT3 antibodies in Ba/F3 cells expressing human wildtype FLT3. Internalization was induced by incubation for 30 min at 37° C. (grey) compared to 4° C. (black). Remaining surface-bound antibody was detected in flow cytometry. MFI was normalized to control human IgG1 binding. MFI=mean fluorescence intensity. […] (D) Cell surface binding of 20D9 mab or control human IgG1 antibody to Ba/F3 cells stably expressing pMIY (Ba/F3-pMIY) empty vector (ev), human wildtype (hFLT3 wt) or ITD mutant human FLT3 (hFLT3ITD) was measured in flow cytometry. Mean±s.d. of n=3. (E) Temperature induced internalization of 4B12 mab in MOLM-13 (FLT3 positive) cells after 30 min incubation at 37° C. compared to 4° C. and HL-60 (FLT3 negative) after 37° C. incubation assessed in immunofluorescence staining. Red=FLT3 staining by 4B12, Green=membrane staining by Vybrant DiO, Blue=nuclear staining by DAPI. Scale bar 5 μm. Representative pictures are shown. (F) Cell surface binding of 20D9 mab or control hIgG1 antibody to Ba/F3-pMIY ev, hFLT3 wt, murine (mFLT3 wt) or cynomolgues monkey FLT3 (cynoFLT3 wt) was measured in flow cytometry. Mean±s.d. of n=3. (G) Cell surface binding of 20D9 mab or control hIgG1 antibody to Ba/F3-PMIY ev, hFLT3 wt or epitope mutant FLT3 (hFLT3/S50P/P54R) measured in flow cytometry. Mean±s.d. of n=3. (H) Cell surface binding of 20D9 mab or control hIgG1 antibody to Ba/F3-PMIY ev, hFLT3 wt or human CD64 (hCD64) measured in flow cytometry. Mean±s.d. of n=3.
Maxisorp plates were coated with human recombinant FLT3 protein (10445-H08H, Sino Biological). Chimeric (20D9) or humanized anti-FLT3 monoclonal antibodies (in house) and secondary alkaline phosphatase conjugated rabbit anti-human IgG antibody (309-055-008, Jackson Immunoresearch) were used. For detection, Attophos Fluorescent Substrate System (S1000, Promega) was applied. The fluorescence was read with excitation of 405 nm and emission at 500-550 nm. The calculation of the dissociation constant KD was performed using GraphPad Prism version 9.4.0.

[1] = target: T2, Ba/F3 cells expressing human wildtype FLT3; assay: Temperature induced internalization in Ba/F3-FLT3, flow cytometry; assay type: cell-based; conditions: 30 min at 37° C. compared to 4° C.
Description: FIG. 1: Evaluation of epitope specificity and internalization capability of anti-FLT3 monoclonal antibodies. (A) Affinity of seven anti-FLT3 monoclonal antibody (mab) clones to recombinant human FLT3 measured in enzyme-linked immunosorbent assay (ELISA) normalized to the binding of the antibodies to BSA control. […] (B) Schematic FLT3 receptor. Black arrows indicate common mutations and blue arrows indicate the three identified epitopes of seven anti-FLT3 antibodies analyzed in linear epitope mapping by PEPperPRINT. Figure was created with BioRender.com. (C) Binding and temperature induced internalization of anti-FLT3 antibodies in Ba/F3 cells expressing human wildtype FLT3. Internalization was induced by incubation for 30 min at 37° C. (grey) compared to 4° C. (black). Remaining surface-bound antibody was detected in flow cytometry. MFI was normalized to control human IgG1 binding. MFI=mean fluorescence intensity. […] (D) Cell surface binding of 20D9 mab or control human IgG1 antibody to Ba/F3 cells stably expressing pMIY (Ba/F3-pMIY) empty vector (ev), human wildtype (hFLT3 wt) or ITD mutant human FLT3 (hFLT3ITD) was measured in flow cytometry. Mean±s.d. of n=3. (E) Temperature induced internalization of 4B12 mab in MOLM-13 (FLT3 positive) cells after 30 min incubation at 37° C. compared to 4° C. and HL-60 (FLT3 negative) after 37° C. incubation assessed in immunofluorescence staining. Red=FLT3 staining by 4B12, Green=membrane staining by Vybrant DiO, Blue=nuclear staining by DAPI. Scale bar 5 μm. Representative pictures are shown. (F) Cell surface binding of 20D9 mab or control hIgG1 antibody to Ba/F3-pMIY ev, hFLT3 wt, murine (mFLT3 wt) or cynomolgues monkey FLT3 (cynoFLT3 wt) was measured in flow cytometry. Mean±s.d. of n=3. (G) Cell surface binding of 20D9 mab or control hIgG1 antibody to Ba/F3-PMIY ev, hFLT3 wt or epitope mutant FLT3 (hFLT3/S50P/P54R) measured in flow cytometry. Mean±s.d. of n=3. (H) Cell surface binding of 20D9 mab or control hIgG1 antibody to Ba/F3-PMIY ev, hFLT3 wt or human CD64 (hCD64) measured in flow cytometry. Mean±s.d. of n=3. […]

[2] = test system: PDX AML cells with FLT3-ITD mutation; assay: Ex vivo treatment of patient derived xenograft (PDX) samples; assay type: cell-based, human

Row | Molecule | Affinity Kd (recombinant human FLT3) [µg/mL] | Internalization in Ba/F3-FLT3 [1] [%] | Ex vivo sensitivity of PDX cells [2]
1 | B1 | 0.03191 | 86 | –
2 | B2 | 0.02188 | 79 | remained ineffective
